The results in this text go back to the supplement of paper PMC9170038.

For this data set, the system named is MS2 coat protein. As to the kind of experiment: apparent KD of MS2 coat protein; designed switch direction (-1 OFF switch, 1 ON switch): -1; higher = weaker reporter binding. In a few lines: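 Designed RNA switches with common flanks were transcribed on Illumina chips by stalled E. coli RNA polymerase and titrated with SNAP-549-labelled MS2 coat protein, from 0.7 or 1.5 nM doubling to 3 µM, in Tris-HCl pH 7.5 buffer with KCl, MgCl2, BSA, DTT, tRNA and Tween-20. Steps lasted 0.8–1.5 h (lowest) to 10–20 min (highest). Titrations ran without input, with 200 uM small-molecule ligand, or with an oligonucleotide input. Normalised cluster fluorescence was curve-fitted, and apparent KD is the per-design median over clusters.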

[1] abbreviates: Eterna round: R95, input ligand: microRNA oligo, concentration not stated.
[2] abbreviates: input ligand: microRNA oligo, concentration not stated.

With “AAUAUUAGAGGAUAUGCACUUGCACUAACGAAAUCCUCACCACAUGAGGAUCACCCAUGUAGAAGGCUGGUGGU [Eternabot (L2) Solution 65] (Eterna round: R97, puzzle: Exclusion 2)”, the “apparent KD of MS2 coat protein” value is 354 nM (input ligand: FMN 200 uM) and 487 nM (input ligand: none).
Take “AAUGAGCUAGGAUAUACAUGAGGAUCACCCAUGUAAAAUAGGUCAUGGAGGAACCACUGUAGAAGGAGCAGGGC [Zagereti] (puzzle: Exclusion 3)”: the “apparent KD of MS2 coat protein” value under setting [1] amounted to 47.1 nM.
Take “AAUGAUUGACGAGGAUAUUGUGGUAAAACACGACGAGAAGGCGUCUGUCACAUGAGGAUCACCCAUGUGAGCUUUGUGGAUAGA [Ex NG1 #72] (Eterna round: R96, puzzle: Exclusion NG 1)”: the “apparent KD of MS2 coat protein” value reads like this: (input ligand: FMN 200 uM) 52.3 nM; under setting [2], 33.6 nM; (input ligand: none) 59.8 nM.
The like results for “AAUGCGGACAAAGGAUAUUGCGGUGACCGGCUCGGCGUACCGAGCCUACAUGAGGAUCACCCAUGUAAGAAGGUUGUCGCAAAA [Mat - Exclusion NG 2 - Mod of JL - D75] (Eterna round: R96, puzzle: Exclusion NG 2)” were, in that order, 16.6 nM, 13.8 nM and 17.5 nM.
For “AAUUAGUGAGGAUAUACUAACAGUGGUAGUAGAUAGUGGAUGUAGAAGGCACAUGAGGAUCACCCAUGUUAUAA [EX4 #52] (Eterna round: R97, puzzle: Exclusion 4)”, the “apparent KD of MS2 coat protein” value reads like this: (input ligand: FMN 200 uM) 26 nM; (input ligand: none) 43.7 nM.
As to “AAUUAUUGAUGAGGAUAUUGUGGUGAAACACGACAAGAAGGCAUUAUACACAUGAGGAUCACCCAUGUGAGCCUGAUGCAUAUA [Ex NG1 #59] (Eterna round: R96, puzzle: Exclusion NG 1)”, under setting [2], the “apparent KD of MS2 coat protein” value was 12.4 nM.
With “AAUUAUUUUUGAGGAUAUUGUGGUGAAACACCACAAGAAGGCAAGAUACACAUGAGGAUCACCCAUGUGAGCCUGAUGCUUAUG [Ex NG1 #53] (Eterna round: R96, puzzle: Exclusion NG 1)”, the “apparent KD of MS2 coat protein” value under setting [2] turned out to be 13.1 nM.
On to “AAUUCACAUGAGGAUCACCCAUGUCAGGAUAUGGUUUCACGGGUUUCGGUGCGUGAGGCCAGAAGGGACAGCUA (puzzle: Exclusion 1)”, for which, under setting [1], the “apparent KD of MS2 coat protein” value came to 51.5 nM.
As to “AAUUUACAUGAGGAUCACCCAUGUGAGGAUAUGGUUUCGCUGGCCGUAGCCAGUGGAACCAGAAGGCGCAUGAU [Mat - Exclusion 1 - JL Mod - D12] (Eterna round: R97, puzzle: Exclusion 1)”, the “apparent KD of MS2 coat protein” value by setting is: (input ligand: FMN 200 uM) 283 nM; (input ligand: none) 65.2 nM.
Consider “AAUUUUUAUGUAAGGAUAUGGGUUUGGAAACGGGCUUAGAAGGUACAUGAGGAUCACCCAUGUAUAAUGUGCGU [-19.9, -19.7 kcal, 30% A] (Eterna round: R97, puzzle: Brourd's mod of Exclusion 4)”, for which the “apparent KD of MS2 coat protein” value by setting is: (input ligand: FMN 200 uM) 19 nM; (input ligand: none) 18.3 nM.
“ACAAAUCAUGUAGGAUAUGCGUGGCGAAGCUAUGCAGAAGGACAUGAGGAUCACCCAUGUGCUUCCGUCUGCGUACAGACGGUA [Mat - Exclusion NG 1 - Mod of JL - D16] (Eterna round: R96, puzzle: Exclusion NG 1)”: the “apparent KD of MS2 coat protein” value (input ligand: FMN 200 uM) came to 75.3 nM, the “apparent KD of MS2 coat protein” value under setting [2] was found to be 64.6 nM and the “apparent KD of MS2 coat protein” value (input ligand: none) is 91.5 nM.
The like results for “ACAAGCAUUUAUAUUUUAAAAUUUUAUCGUCUUAUAAUUACAUGAGGAUCACCCAUGUAUAAAGGGUGAAUAAUAAU [JR_Sensorv2_tov2_Sub550] (Eterna round: R96, puzzle: Sensor v2, turn-off variant 2)” were, in that order, 93.9 nM, 203 nM and 91.8 nM.
For the sequence “ACAAGCUAUAUGCUCGGUUACAUGAGGAUCACCCAUGUACUCAUGUUCUUAUGUACUGACACGAAAGUGUUAGUAAU [AK-miRNA-r3-1] (Eterna round: R97, puzzle: Sensor, turn-off variant 1)”, the “apparent KD of MS2 coat protein” value runs as follows: (input ligand: FMN 200 uM) 110 nM; (input ligand: none) 122 nM.
